Test results reported in PMC5798830, “Hexons from adenovirus serotypes 5 and 48 differentially protect adenovirus vectors from neutralization by mouse and human serum” (PLoS ONE, 2018).

What was measured:
[1] = target: T1, mouse coagulation factor X (mouse); experiment: SPR; Biacore T200; about 1,200 reference units of Ad5.0, Ad5:H48 or Ad48 particles immobilised on a CM5 chip; FX as analyte at four concentrations (max 42 nM for Ad5.0 and Ad5:H48, 212 nM for Ad48); 10 mM HEPES, 150 mM NaCl, 1 mM CaCl2, 0.5 mM MgCl2, 0.1% BSA, 0.05% polysorbate 20, pH 7.4; 50 uL/min; global fit to a 1:1 kinetic model; details: both partners purified
T1 construct: also called mouse FX; FX; source: bought: Haematologic Technologies, Inc

[2] = target: T2, human coagulation factor X (human); experiment: as above; details: both partners purified
T2 construct: Probably plasma zymogen with Gla residues in the light chain (surmised); also called human FX; FX; source: bought: Haematologic Technologies, Inc

B1: Ad5.0 vector (adenovirus serotype 5 vector with a wild-type Ad5 capsid) (complex)
chain: ATPSMMPQWSYMHISGQDASEYLSPGLVQFARATETYFSLNNKFRNPTVAPTHDVTTDRSQRLTLRFIPVDREDTAYSYKARFTLAVGDNRVLDMASTYFDIRGVLDRGPTFKPYSGTAYNALAPKGAPNPCEWDEAATALEINLEEEDDDNEDEVDEQAEQQKTHVFGQAPYSGINITKEGIQIGVEGQTPKYADKTFQPEPQIGESQWYETEINHAAGRVLKKTTPMKPCYGSYAKPTNENGGQGILVKQQNGKLESQVEMQFFSTTEATAGNGDNLTPKVVLYSEDVDIETPDTHISYMPTIKEGNSRELMGQQSMPNRPNYIAFRDNFIGLMYYNSTGNMGVLAGQASQLNAVVDLQDRNTELSYQLLLDSIGDRTRYFSMWNQAVDSYDPDVRIIENHGTEDELPNYCFPLGGVINTETLTKVKPKTGQENGWEKDATEFSDKNEIRVGNNFAMEINLNANLWRNFLYSNIALYLPDKLKYSPSNVKISDNPNTYDYMNKRVVAPGLVDCYINLGARWSLDYMDNVNPFNHHRNAGLRYRSMLLGNGRYVPFHIQVPQKFFAIKNLLLLPGSYTYEWNFRKDVNMVLQSSLGNDLRVDGASIKFDSICLYATFFPMAHNTASTLEAMLRNDTNDQSFNDYLSAANMLYPIPANATNVPISIPSRNWAAFRGWAFTRLKTKETPSLGSGYDPYYTYSGSIPYLDGTFYLNHTFKKVAITFDSSVSWPGNDRLLTPNEFEIKRSVDGEGYNVAQCNMTKDWFLVQMLANYNIGYQGFYIPESYKDRMYSFFRNFQPMSRQVVDDTKYKDYQQVGILHQHNNSGFVGYLAPTMREGQAYPANFPYPLIGKTAVDSITQKKFLCDRTLWRIPFSSNFMSMGALTDLGQNLLYANSAHALDMTFEVDPMDEPTLLYVLFEVFDVVRVHRPHRGVIETVYLRTPFSAGNATT
[1]
  Kd: 0.42 nM
[2]
  Kd: 0.82 nM
